Data as given in patent US20090192048A1, “METHOD OF PRODUCING A […] AGENT FOR BINDING A LIGAND” (priority 2005, published 2009).
Ends that are not written are not given here.

Tests used:
Type in all cases: physicochemical
[1] = Retention of peptides on Greiner polystyrene V-bottom wells; conditions: 400V scan; for Untreated fluorescence: unwashed; for Retained fluorescence: washed 15 minutes in 1 M NaCl in 10 mM tris-HCl (pH 8.0)
Description: (§1) The retention of peptides 2DOS-1 to 2DOS-16 (see above) on polypropylene and polystyrene surfaces was compared:
(§2) 5 mM tris-HCl (pH 8.0) in 75% (v/v) aqueous acetonitrile was used as the solvent for the peptides and for TAMRA.
(§3) 20 μl aliquots of 5 μM peptides 2DOS-1 to 2DOS-16 and 5 μM TAMRA were pipetted into the wells of a Costar V-bottomed polypropylene microtitre plate, a Greiner V-bottomed polypropylene microtitre plate, and a Greiner V-bottomed polystyrene microtitre plate according to the scheme shown in FIG. 26:
(§4) The peptide samples were allowed to evaporate to dryness in the dark.
(§5) The peptide samples in the top two rows of the microtitre plates were then incubated for 15 minutes at room temperature in 250 μl of 1 M NaCl in 10 mM tris-HCl (pH 8.0).
(§6) After incubation, the wash buffer was pipetted up and down eight times in the well before removing the supernatant.
(§7) The washed and untreated peptide samples were then resuspended in 50 μl of 10 mM tris-HCl (pH 8.0) in 50% (v/v) aqueous acetonitrile.
(§8) The microtitre plates were imaged at 200 μm resolution on a Typhoon Trio Plus variable mode imager (Amersham Biosciences) with the green (532 nm) laser and the 580 BP 30 filter at the PMT voltages indicated below and at normal sensitivity. The scan height was set at +3 mm and the sample was pressed during scanning.
(§9) The fluorescence images were analysed using ImageQuant TL v2003.03 (Amersham Biosciences).

[2] = Retention of peptides in flat-bottomed polypropylene wells; conditions: flat-bottom wells, 500V scan; for Untreated fluorescence: unwashed; for Retained fluorescence: washed 15 minutes in 1 M NaCl in 10 mM tris-HCl (pH 8.0)
Description: (§10) The retention of peptides 2DOS-1 to 2DOS-16 (see above) on polypropylene wells of different geometries was investigated:
(§11) 10 mM tris-HCl (pH 8.0) in 50% (v/v) aqueous acetonitrile was used as the solvent for the peptides and for TAMRA.
(§12) 1 μl aliquots of 10 μM peptides 2DOS-1 to 2DOS-16 and 10 μM TAMRA were pipetted into the wells of a Costar V-bottomed polypropylene microtitre plate and a Greiner flat-bottomed polypropylene microtitre plate according to the following scheme as shown in FIG. 22:
as §4
(§13) The peptide samples in the top two rows of the microtitre plates were then incubated for 15′ minutes at room temperature in 250 μl of 1 M NaCl in 10 mM tris-HCl (pH 8.0).
as §6, §7
as §8, with “the platen” for “+3 mm”, “during,” for “during”
as §9

[3] = Retention of peptides in V-bottomed polypropylene wells; conditions: V-bottom wells, 500V scan; for Untreated fluorescence: unwashed; for Retained fluorescence: washed 15 minutes in 1 M NaCl in 10 mM tris-HCl (pH 8.0)
Description: as §10, §11, §12, §4, §13, §6, §7
as §8, with “the platen” for “+3 mm”, “during,” for “during”
as §9

[4] = Retention of peptides on Costar polypropylene V-bottom wells; conditions: 400V scan; for Untreated fluorescence: unwashed; for Retained fluorescence: washed 15 minutes in 1 M NaCl in 10 mM tris-HCl (pH 8.0)
Description: as §1, §2, §3, §4, §5, §6, §7, §8, §9

[5] = Retention of peptides on Greiner polypropylene V-bottom wells; conditions: 400V scan; for Untreated fluorescence: unwashed; for Retained fluorescence: washed 15 minutes in 1 M NaCl in 10 mM tris-HCl (pH 8.0)
Description: as §1, §2, §3, §4, §5, §6, §7, §8, §9

[6] = Retention of peptides 2DOS-1 to 2DOS-16 on a hydrophobic surface (polypropylene microtitre plate wells), water wash; conditions: 400V scan; for Initial fluorescence (×10^3): 100 μl of 10 μM peptide before drying and washing; for Recovered fluorescence (×10^3): dried, washed ten times with 250 μl water, resuspended
Description: The retention of peptides 2DOS-1 to 2DOS-16 on a hydrophobic surface (the wells of a polypropylene microtitre plate) was then investigated.
as §11
100 μl aliquots of 10 μM peptides 2DOS-1 to 2DOS-16 and 10 μM TAMRA were placed in the wells of a Costar microtitre plate as shown in FIG. 13:
as §8, with “plate was” for “plates were”
The peptides were allowed to evaporate to dryness overnight in the dark and the microtitre plate was again scanned as described above.
The wells were then washed ten times with 250 μl of water.
The residual surface-bound peptides were finally resuspended in 100 μl of 10 mM tris-HCl (pH 8.0) in 50% (v/v) aqueous acetonitrile and the microtitre plate was again scanned as described above.
as §9
Quantification data (using the data from the 400V scan) is given in Table 2 and shown graphically in FIG. 15.

N-TAMRA-Asp- Norleu- Asp-Norleu-Asp- Norleu-Asp-C [Peptide 2DOS-13]
Percent retention [1]: 9% | Untreated fluorescence [1]: 708,162 | Retained fluorescence [1]: 62,590 | Percent retention [2]: 17% | Untreated fluorescence [2]: 12,935,739 | Retained fluorescence [2]: 2,162,164 | Percent retention [3]: 11% | Untreated fluorescence [3]: 7,623,227 | Retained fluorescence [3]: 806,022 | Percent retention [4]: 8% | Untreated fluorescence [4]: 4,886,617 | Retained fluorescence [4]: 387,738 | Percent retention [5]: 10% | Untreated fluorescence [5]: 3,635,229 | Retained fluorescence [5]: 378,287 | Initial fluorescence (×10^3) [6]: 26,181 ×10^3 | Recovered fluorescence (×10^3) [6]: 25 ×10^3

N-TAMRA-Ser-Asp- Ser-Asp-Ser-Asp- Ser-Asp-Ser-C ({TAMRA}-SDSDSDSDS) [Peptide 2DOS-11]
Percent retention [1]: 1% | Untreated fluorescence [1]: 675,269 | Retained fluorescence [1]: 7,365 | Percent retention [2]: 3% | Untreated fluorescence [2]: 13,960,552 | Retained fluorescence [2]: 476,318 | Percent retention [3]: 2% | Untreated fluorescence [3]: 9,705,293 | Retained fluorescence [3]: 192,272 | Percent retention [4]: 2% | Untreated fluorescence [4]: 5,327,435 | Retained fluorescence [4]: 102,040 | Percent retention [5]: 2% | Untreated fluorescence [5]: 3,510,896 | Retained fluorescence [5]: 86,818 | Initial fluorescence (×10^3) [6]: 26,860 ×10^3 | Recovered fluorescence (×10^3) [6]: 0 ×10^3

N-TAMRA-Asp-Ser- Ala-Ser-Ser-Ser- Lys-C ({TAMRA}-DSASSSK) [Peptide 2DOS-7]
Percent retention [1]: 2% | Untreated fluorescence [1]: 706,200 | Retained fluorescence [1]: 15,766 | Percent retention [2]: 13% | Untreated fluorescence [2]: 10,189,473 | Retained fluorescence [2]: 1,303,195 | Percent retention [3]: 9% | Untreated fluorescence [3]: 8,674,544 | Retained fluorescence [3]: 746,596 | Percent retention [4]: 6% | Untreated fluorescence [4]: 5,139,578 | Retained fluorescence [4]: 326,328 | Percent retention [5]: 5% | Untreated fluorescence [5]: 3,751,280 | Retained fluorescence [5]: 205,430 | Initial fluorescence (×10^3) [6]: 29,134 ×10^3 | Recovered fluorescence (×10^3) [6]: 0 ×10^3

N-TAMPA- Asp-Norleu- Ala-Norleu-Ser- Norleu-Lys-C [Peptide 2DOS-5]
Percent retention [1]: 23% | Untreated fluorescence [1]: 745,029 | Retained fluorescence [1]: 171,500 | Percent retention [2]: 45% | Untreated fluorescence [2]: 14,337,629 | Retained fluorescence [2]: 6,492,170 | Percent retention [3]: 36% | Untreated fluorescence [3]: 8,664,667 | Retained fluorescence [3]: 3,116,833 | Percent retention [4]: 31% | Untreated fluorescence [4]: 5,331,763 | Retained fluorescence [4]: 1,651,850 | Percent retention [5]: 27% | Untreated fluorescence [5]: 3,817,250 | Retained fluorescence [5]: 1,048,978 | Initial fluorescence (×10^3) [6]: 32,473 ×10^3 | Recovered fluorescence (×10^3) [6]: 1,270 ×10^3

N-TAMRA-Norleu- Asp-Norleu-Ala- Norleu-Ser-Norleu- Lys-Norleu-C [Peptide 2DOS-1]
Percent retention [1]: 35% | Untreated fluorescence [1]: 640,145 | Retained fluorescence [1]: 225,686 | Percent retention [2]: 14% | Untreated fluorescence [2]: 14,949,396 | Retained fluorescence [2]: 2,157,124 | Percent retention [3]: 70% | Untreated fluorescence [3]: 9,550,835 | Retained fluorescence [3]: 6,641,271 | Percent retention [4]: 52% | Untreated fluorescence [4]: 6,458,364 | Retained fluorescence [4]: 3,366,403 | Percent retention [5]: 37% | Untreated fluorescence [5]: 3,328,960 | Retained fluorescence [5]: 1,235,460 | Initial fluorescence (×10^3) [6]: 33,015 ×10^3 | Recovered fluorescence (×10^3) [6]: 7,459 ×10^3

N-TAMPA-Asp-Asp- Ala-Asp-Ser-Asp- Lys-C ({TAMRA}-DDADSDK) [Peptide 2DOS-8]
Percent retention [1]: 1% | Untreated fluorescence [1]: 842,984 | Retained fluorescence [1]: 5,071 | Percent retention [2]: 4% | Untreated fluorescence [2]: 17,576,485 | Retained fluorescence [2]: 637,350 | Percent retention [3]: 2% | Untreated fluorescence [3]: 10,130,734 | Retained fluorescence [3]: 202,943 | Percent retention [4]: 1% | Untreated fluorescence [4]: 6,587,741 | Retained fluorescence [4]: 93,455 | Percent retention [5]: 2% | Untreated fluorescence [5]: 3,903,470 | Retained fluorescence [5]: 80,770 | Initial fluorescence (×10^3) [6]: 33,615 ×10^3 | Recovered fluorescence (×10^3) [6]: 3 ×10^3

N-TAMPA-Norleu- Asp-Norleu-Asp- Norleu-Asp-Norleu- Asp-Norleu-C [Peptide 2DOS-9]
Percent retention [1]: 10% | Untreated fluorescence [1]: 626,304 | Retained fluorescence [1]: 62,023 | Percent retention [2]: 16% | Untreated fluorescence [2]: 13,456,698 | Retained fluorescence [2]: 2,148,849 | Percent retention [3]: 14% | Untreated fluorescence [3]: 11,662,691 | Retained fluorescence [3]: 1,608,482 | Percent retention [4]: 17% | Untreated fluorescence [4]: 7,102,251 | Retained fluorescence [4]: 1,184,648 | Percent retention [5]: 12% | Untreated fluorescence [5]: 3,621,913 | Retained fluorescence [5]: 439,252 | Initial fluorescence (×10^3) [6]: 34,587 ×10^3 | Recovered fluorescence (×10^3) [6]: 2,382 ×10^3

N-TAMRA-Asp-Phe- Asp-Phe-Asp-Phe- Asp-C ({TAMRA}-DFDFDFD) [Peptide 2DOS-14]
Percent retention [1]: 9% | Untreated fluorescence [1]: 860,811 | Retained fluorescence [1]: 75,304 | Percent retention [2]: 4% | Untreated fluorescence [2]: 15,090,582 | Retained fluorescence [2]: 670,341 | Percent retention [3]: 13% | Untreated fluorescence [3]: 7,641,246 | Retained fluorescence [3]: 1,018,179 | Percent retention [4]: 11% | Untreated fluorescence [4]: 5,331,894 | Retained fluorescence [4]: 595,959 | Percent retention [5]: 13% | Untreated fluorescence [5]: 3,612,113 | Retained fluorescence [5]: 461,468 | Initial fluorescence (×10^3) [6]: 28,071 ×10^3 | Recovered fluorescence (×10^3) [6]: 283 ×10^3

N-TAMRA-Ser-Asp- Ser-Ala-Ser-Ser- Ser-Lys-Ser-C ({TAMRA}-SDSASSSKS) [Peptide 2DOS-3]
Percent retention [1]: 5% | Untreated fluorescence [1]: 744,747 | Retained fluorescence [1]: 37,388 | Percent retention [2]: 20% | Untreated fluorescence [2]: 14,152,875 | Retained fluorescence [2]: 2,836,015 | Percent retention [3]: 22% | Untreated fluorescence [3]: 9,020,171 | Retained fluorescence [3]: 1,951,694 | Percent retention [4]: 12% | Untreated fluorescence [4]: 5,660,618 | Retained fluorescence [4]: 673,940 | Percent retention [5]: 10% | Untreated fluorescence [5]: 3,583,352 | Retained fluorescence [5]: 342,889 | Initial fluorescence (×10^3) [6]: 32,913 ×10^3 | Recovered fluorescence (×10^3) [6]: 8 ×10^3
